Patent USRE40850E1
Several values for one entry are separate records, joined by “and”; a condition that tells them apart may be missing. Equal entries are not always repeated.

How the values were obtained:
[1] = biological target: PTH receptor present on the SaOS-2 (human osteosarcoma cells) (human (SaOS-2 human osteosarcoma cells)) (UniProt Q03431)
[2] = biological target: PTH receptor present on the SaOS-2 (human osteosarcoma cells) (human (SaOS-2 human osteosarcoma cells)) (UniProt Q03431); test: displacement of mono-125I-[Nle8,18,Tyr34(3-125I)]bPTH(1-34)NH2 from SaOS-2 cells; Kd defined as half maximal inhibition

| EC50 (half maximal stimulation of adenylate cyclase, cAMP synthesis in SaOS-2 cells) [1] | Kd [2] | Substance |
| --- | --- | --- |
| 1.5 nM | 30 nM | [Cha^7,11, Nle^8,18,31, Aib^34]hPTH(1-34)NH2 (from UniProt P01270) (peptide) |
| 4 nM | 30 nM | [Cha^31]hPTH(1-34)NH2 (from UniProt P01270) (peptide) |
| 30 nM | 1000 nM | [Cha^24,28,31]hPTH(1-34)NH2 (from UniProt P01270) (peptide) |
| 1 nM | 7 nM | [hArg^27]hPTH(1-34)NH2 (from UniProt P01270) (peptide) |
| 10 nM | 100 nM | [Cha^24]hPTH(1-34)NH2 (from UniProt P01270) (peptide) |
| 0.7 nM | 4 nM | [Nle^31]hPTH(1-34)NH2 (from UniProt P01270) (peptide) |
| 0.6 nM | 4 nM | [Aib^16,19]hPTH(1-34)NH2 (from UniProt P01270) (peptide) |
| 2 nM | 5 nM | [Cha^11]hPTH(1-34)NH2 (from UniProt P01270) (peptide) |
| 0.7 nM | 4 nM | [Aib^10]hPTH(1-34)NH2 (from UniProt P01270) (peptide) |
| 20 nM | 200 nM | [Cha^23]hPTH(1-34)NH2 (from UniProt P01270) (peptide) |
| 7 nM | 60 nM | [Cha^28,31]hPTH(1-34)NH2 (from UniProt P01270) (peptide) |
| 0.5 nM | 7 nM | [Cha^7,11, Aib^19]hPTH(1-34)NH2 (from UniProt P01270) (peptide) |
| 0.6 nM | 10 nM | [Cha^7,11]hPTH(1-34)NH2 (from UniProt P01270) (peptide) |
| 1.4 nM | 10 nM | [Cha^7,11,15]hPTH(1-34)NH2 (from UniProt P01270) (peptide) |
| 4 nM | 40 nM | [Cha^7,11, Nle^8,18,31, Aib^16,19, Tyr^34]hPTH(1-34)NH2 (from UniProt P01270) (peptide) |
| 0.6 nM | 6 nM | [Cha^7,11, Nle^8,18, Tyr^34]hPTH(1-34)NH2 (from UniProt P01270) (peptide) |
| 10 nM | 150 nM | [Dap^1, Nle^8,18, Tyr^34]hPTH(1-34)NH2 (from UniProt P01270) (peptide) |
| 2.5 nM | 50 nM | [Cha^28]hPTH(1-34)NH2 (from UniProt P01270) (peptide) |
| 2 nM | 4 nM | [Cha^7,11, Aib^19, Lys^30]hPTH(1-34)NH2 (from UniProt P01270) (peptide) |
| 1.5 nM | 5 nM | [Cha^7,11, Nle^8,18, Aib^16,19, Tyr^34]hPTH(1-34)NH2 (from UniProt P01270) (peptide) |
| 2 nM | 50 nM | [Nle^8,18, Cha^27]hPTH(1-34)NH2 (from UniProt P01270) (peptide) |
| 1.3 nM | 5 nM | [Cha^15]hPTH(1-34)NH2 (from UniProt P01270) (peptide) |
| 2.3 nM | 20 nM | [Cha^7]hPTH(1-34)NH2 (from UniProt P01270) (peptide) |
| 1.1 nM | 4 nM | [Cha^7,11, Aib^16]hPTH(1-34)NH2 (from UniProt P01270) (peptide) |
| 7 nM | 500 nM | [Cha^24,28,31, Lys^30]hPTH(1-34)NH2 (from UniProt P01270) (peptide) |
| 3 nM | 7 nM | [Aib^34]hPTH(1-34)NH2 (from UniProt P01270) (peptide) |
| 0.6 nM | 5 nM | [Aib^19]hPTH(1-34)NH2 (from UniProt P01270) (peptide) |
| 2 nM and 3 nM | 5 nM and 50 nM | [Aib^17]hPTH(1-34)NH2 (from UniProt P01270) (peptide) |
| 1.1 nM | 4 nM | [Aib^3]hPTH(1-34)NH2 (from UniProt P01270) (peptide) |
